Data taken from paper PMC10814857, “Functional Classification and Interaction Selectivity Landscape of the Human SH3 Domain Superfamily” (Cells, 2024).

Columns and labels:
[1] = target: SOS1 P7 (Homo sapiens), Q07889; experiment: fluorescence polarization
[2] = target: P7, fluorescein-labelled proline-rich peptide from the SOS1 proline-rich domain (human); experiment: fluorescence polarisation; 0.2 µM fluorescein-labelled peptide, SH3 domain titrated 0 to 200 µM; 30 mM Tris/HCl pH 7.5, 5 mM MgCl2, 3 mM DTT, 25 °C; quadratic ligand binding equation

B1: ARHGAP12 SH3, Q8IWW6 (protein)
chain: KIIPGQVYIEVEYDYEYEAKDRKIVIKQGERYILVKKTNDDWWQVKPDENSKAFYVPAQYVKEVTRKAL
Question: B1 was tested. Which Kd [1] did it give?
Answer: < 0.5 µM

B2: ARHGAP12 SH3 domain, GST cleaved (domain or fragment)
chain: PGQVYIEVEYDYEYEAKDRKIVIKQGERYILVKKTNDDWWQVKPDENSKAFYVPAQYVKEVTR
Question: With B2 as the binder, how does the Kd [2] read?
Answer: 0.2 µM
